Experimental data as given in patent US9605064B2, “Methods and compositions for treatment of skin disorders” (AbbVie Biotechnology Ltd, priority 2006, dated 2017).
Marks after values point to notes of the source that are not given here.

Tests used:
[1] = test system: patients with moderate to severe chronic plaque psoriasis; experiment: Adverse events, CHAMPION 16-week Phase III trial; conditions: 16-week study
Description: The study was a multi-center, 16-week, randomized controlled Phase III trial. The main inclusion criteria included: • Clinical diagnosis of psoriasis for ≧1 year • Affected body surface area (BSA)≧10% • Psoriasis Area and Severity Index (PASI)≧10 The main exclusion criteria was previous use of MTX or systemic anti-TNF therapy.

[2] = test system: patients with moderate to severe psoriasis; experiment: PASI response, open-label extension (OLE) of REVEAL; format: in vivo, human
Description: Laboratory parameters and adverse events were also recorded.
The REVEAL study had two independent primary endpoints. The first endpoint was the proportion of patients achieving 75 percent improvement in skin clearance after 16 weeks. The second endpoint was the proportion of patients who lost adequate response through week 52 after stopping treatment with HUMIRA at week 33. Signs of psoriasis were evaluated using the Psoriasis Area and Severity Index (PASI), among other measures. […] At week 52, the start of the OLE period, patients randomized at week 33, as well as patients originally in the placebo group at week 0, were able to enter the OLE period.

[3] = test system: patients with moderate to severe psoriasis; experiment: PASI 75 response, pooled Phase II (M02-528), CHAMPION and REVEAL by prior systemic therapy; format: in vivo, human; conditions: for PASI 75 Response: Overall: pooled studies, ITT, missing = nonresponder
Description: For the Phase III studies, study investigators collected patient histories of use of systemic psoriasis treatments over lifetime and response to systemic treatments administered within 12 months of study entry (patient recall of response to treatments administered more than 12 months before enrollment was not collected). For the Phase II study, patient histories of use of systemic treatments for psoriasis administered within 12 months of study entry and response to treatment within 12 months were collected. PASI response rates were assessed through Week 12 for the Phase II study and through Week 16 for the Phase III studies. Intention-to-treat analyses were conducted, with patients with missing PASI responses considered non-responders.

[4] = test system: patients with moderate to severe chronic plaque psoriasis; experiment: PASI response, open-label extension of CHAMPION (methotrexate to adalimumab transition); format: in vivo, human
[5] = test system: patients with moderate to severe psoriasis; experiment: Adverse events, open-label extension of REVEAL
[6] = test system: patients with moderate to severe chronic plaque psoriasis; experiment: Adverse events, 120-week open-label extension study; conditions: 40 mg eow; for Hypercholesterolemia / Increased triglycerides: non-fasting
Description: Inclusion criteria included: moderate to severe chronic plaque psoriasis: ≧1 year and affected BSA: ≧5%. Exclusion criteria included prior TNF-antagonist therapy.
PASI responses and PGA scores were analyzed as observed. […] Thus, patients whose dosages increased were counted as non-responders from the time of dosage escalation. Adverse events were collected throughout the 120-week period.

[7] = MTX N = 110, Adalimumab N = 107
[8] = Week 0 of OLE, n = 233, ITT, LOCF, 40 mg eow
[9] = Week 12 of OLE, n = 233, ITT, LOCF, 40 mg eow
[10] = Week 24 of OLE, n = 233, ITT, LOCF, 40 mg eow
[11] = after 12 months of continuous adalimumab dosing, ITT (233 patients)
[12] = after 18 months, ITT (233 patients)
[13] = methotrexate-treated patients after 12 weeks of adalimumab therapy
[14] = methotrexate-treated patients after 24 weeks of adalimumab therapy

## Adalimumab: a human anti-TNF mAb, described in U.S. Pat. No. 6,090,382 as D2E7 (HUMIRA, Abbott Laboratories)
[1]; [7]
  Any AE: 79 (74) n (%)
  Any AE leading to discontinuation: 1 (1) n (%)
  Any SAE: 2 (2) n (%)
[1]; common AE in ≧5% of patients
  Arthralgia: 6 (6) n (%)
  Gamma-Glutamyltransferase Increased: 2 (2) n (%)
  Headache: 14 (13) n (%)
  Nasopharyngitis: 30 (28) n (%)
  Nausea: 4 (4) n (%)
  Pruritus: 4 (4) n (%)
  Rhinitis: 3 (3) n (%)
  Rhinorrhea: 3 (3) n (%)
  Viral Infection: 0 (0) n (%)
[2]; [8]
  PASI 75 response rate: 85%
  PASI 90 response rate: 84%
  PASI 100 response rate: 87%
[2]; [9]
  PASI 75 response rate: 59%
  PASI 90 response rate: 60%
  PASI 100 response rate: 63%
[2]; [10]
  PASI 75 response rate: 35%
  PASI 90 response rate: 33%
  PASI 100 response rate: 34%
[2]; [11]
  PASI 75 response rate: 85%
  PASI 90 response rate: 59%
  PASI 100 response rate: 35%
[2]; [12]
  PASI 75 response rate: 87%
  PASI 90 response rate: 63%
  PASI 100 response rate: 34%
[2]; re-randomized to adalimumab at Wk 33, did not lose adequate response, after 24 weeks in OLE
  PASI 75 response rate: 83%
[2]; re-randomized to adalimumab at Wk 33, lost adequate response, after 24 weeks in OLE
  PASI 75 response rate: 55%
[2]; re-randomized to placebo at Wk 33, did not lose adequate response, Wk 24 of OLE adalimumab
  PASI 75 response rate: 84%
[2]; re-randomized to placebo at Wk 33, lost adequate response, Wk 24 of OLE adalimumab
  PASI 75 response rate: 55%
[3]; Week 4
  PASI 75 Response: Overall: 19.4%
[3]; Week 12
  PASI 75 Response: Overall: 68.1%
[3]; Week 16, patients with prior lack of response to MTX (N = 32)
  PASI 75 Response: Lack of Response: MTX: 65.6% * (N = 32)
[3]; Week 16, patients with prior lack of response to cyclosporine (N = 7)
  PASI 75 Response: Lack of Response: Cyclosporine: 71.4% (N = 7)
[3]; Week 16, patients with prior lack of response to oral PUVA (N = 6)
  PASI 75 Response: Lack of Response: Oral PUVA: 83.3% (N = 6)
[3]; overall (n=921), Week 16
  PASI 75 response rate: 72.1%
[3]; overall (n=966), Week 4
  PASI 75 response rate: 19.4%
[3]; patients who had failed to respond to systemic therapy (n=152), Week 16
  PASI 75 response rate: 70.4%
[3]; patients who had failed to respond to systemic therapy (n=160), Week 4
  PASI 75 response rate: 15.6%
[3]; patients who had received systemic therapies (n=491), Week 16
  PASI 75 response rate: 72.7%
[3]; patients who had received systemic therapies (n=511), Week 4
  PASI 75 response rate: 21.7%
[4]; [13]
  PASI 75 response rate: 75%
  PASI 90 response rate: 47%
  PASI 100 response rate: 18%
[4]; [14]
  PASI 75 response rate: 73%
  PASI 90 response rate: 53%
  PASI 100 response rate: 32%
[5]; First 24 weeks of OLE
  AEs leading to withdrawal, Patients (%): 1%
  Any AE, Patients (%): 47%
  Lymphoma, Patients (%): 0%
  Malignancy, Patients (%): 1%
  Non-melanoma skin cancer, Patients (%): 0%
  Serious AE, Patients (%): 3%
[5]; First 24 weeks of OLE, AEs occurring ≧5% of patients
  Nasopharyngitis, Patients (%): 5%
[5]; between Months 12-18
  patients with serious adverse events: 2.6%
[6]; 120-week period
  cases of tuberculosis, demyelinating disorder, lupus-like syndrome, lymphoma, or congestive heart failure: No cases
[6]; Week 0-24 (n = 92)
  AEs leading to withdrawal, patients: 4 (4.3) n (%)
  Any AE, patients: 69 (75.0) n (%)
  Diarrhea: 5 (5.4) n (%)
  Headache: 7 (7.6) n (%)
  Infectious AEs, patients: 28 (30.4) n (%)
  Malignant AEs, patients: 1 (1.1) n (%)
  Nasopharyngitis: 9 (9.8) n (%)
  Serious AEs, patients: 2 (2.2) n (%)
  Sinusitis: 1 (1.1) n (%)
  Hypercholesterolemia: 4 (4.3) n (%)
  Increased triglycerides: 7 (7.6) n (%)
[6]; Week 25-48 (n = 78)
  AEs leading to withdrawal, patients: 0 (0.0) n (%)
  Any AE, patients: 33 (42.3) n (%)
  Diarrhea: 1 (1.3) n (%)
  Headache: 0 (0.0) n (%)
  Malignant AEs, patients: 0 (0.0) n (%)
  Nasopharyngitis: 5 (6.4) n (%)
  Serious AEs, patients: 0 (0.0) n (%)
  Sinusitis: 1 (1.3) n (%)
  Hypercholesterolemia: 0 (0.0) n (%)
  Increased triglycerides: 1 (1.3) n (%)
[6]; Week 49-72 (n = 62)
  AEs leading to withdrawal, patients: 0 (0.0) n (%)
  Any AE, patients: 28 (45.2) n (%)
  Diarrhea: 1 (1.6) n (%)
  Headache: 0 (0.0) n (%)
  Malignant AEs, patients: 0 (0.0) n (%)
  Nasopharyngitis: 1 (1.6) n (%)
  Serious AEs, patients: 0 (0.0) n (%)
  Sinusitis: 1 (1.6) n (%)
  Hypercholesterolemia: 1 (1.6) n (%)
  Increased triglycerides: 1 (1.6) n (%)
[6]; Week 73-96 (n = 55)
  AEs leading to withdrawal, patients: 0 (0.0) n (%)
  Any AE, patients: 27 (49.1) n (%)
  Diarrhea: 0 (0.0) n (%)
  Headache: 0 (0.0) n (%)
  Malignant AEs, patients: 0 (0.0) n (%)
  Nasopharyngitis: 3 (5.5) n (%)
  Serious AEs, patients: 0 (0.0) n (%)
  Sinusitis: 3 (5.5) n (%)
  Hypercholesterolemia: 3 (5.5) n (%)
  Increased triglycerides: 1 (1.8) n (%)
[6]; Week 97-120 (n = 53)
  AEs leading to withdrawal, patients: 0 (0.0) n (%)
  Any AE, patients: 25 (47.2) n (%)
  Diarrhea: 3 (5.7) n (%)
  Headache: 0 (0.0) n (%)
  Malignant AEs, patients: 0 (0.0) n (%)
  Nasopharyngitis: 2 (3.8) n (%)
  Serious AEs, patients: 1 (1.9) n (%)
  Sinusitis: 1 (1-9) n (%)
  Hypercholesterolemia: 1 (1.9) n (%)
  Increased triglycerides: 0 (0.0) n (%)
